Earlier results as cited in paper PMC11168107.
Where two headings read alike, the source gives them in different places.

What was measured:
Bin1 SH3 (Homo sapiens) [1] = molecular target: Bin1 SH3 (Homo sapiens) (UniProt O00499)
Bin1 SH3 (Homo sapiens) [2] = molecular target: Bin1 SH3 (Homo sapiens) (UniProt O00499); remark: listed apart in the source

Sequence of UniProt O00499 (O00499 517-593): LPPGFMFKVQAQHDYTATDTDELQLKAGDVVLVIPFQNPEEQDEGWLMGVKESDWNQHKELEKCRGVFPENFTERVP

| Substance | Kd (Bin1 SH3 (Homo sapiens) [1]) | Kd (Bin1 SH3 (Homo sapiens) [2]) |
| --- | --- | --- |
| MYC 1-88 (from UniProt P01106) | 33 µM | – |
| MYC 55-68 (from UniProt P01106) | – | 4.2 µM |
